Test results taken from patent CN116769729A (UNIV SCIENCE & TECHNOLOGY CHINA, dated 2023).

Legend:
[1] = biological target: T1, 小鼠CD150 on mouse spleen cells (mouse, UniProt Q9QUM4 25-343); assay: flow cytometry on mouse spleen cells
T1 construct: This is endogenous CD150 on mouse splenocytes in the flow cytometry assay
T1 sequence: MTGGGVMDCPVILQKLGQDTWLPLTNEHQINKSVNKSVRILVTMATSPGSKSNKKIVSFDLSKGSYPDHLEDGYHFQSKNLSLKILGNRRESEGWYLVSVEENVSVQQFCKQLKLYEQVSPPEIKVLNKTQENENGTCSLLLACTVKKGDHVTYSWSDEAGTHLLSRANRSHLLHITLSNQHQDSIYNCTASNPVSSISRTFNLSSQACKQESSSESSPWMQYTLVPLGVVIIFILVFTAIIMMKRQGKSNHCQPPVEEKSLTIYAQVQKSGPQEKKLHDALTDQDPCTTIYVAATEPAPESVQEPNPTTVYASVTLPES

[2] = biological target: T2, 小鼠CD150胞外段蛋白 (CD150m, hFc removed by TEV cleavage) (mouse, UniProt Q9QUM4 25-242); assay: indirect ELISA, CD150 protein coated at 0.25 μg/ml, HRP anti-rat IgG detection
T2 construct: The monomeric protein was used; In the BLI assay the protein was biotinylated (biotin-CD150); also called CD150蛋白; biotin-CD150
T2 sequence: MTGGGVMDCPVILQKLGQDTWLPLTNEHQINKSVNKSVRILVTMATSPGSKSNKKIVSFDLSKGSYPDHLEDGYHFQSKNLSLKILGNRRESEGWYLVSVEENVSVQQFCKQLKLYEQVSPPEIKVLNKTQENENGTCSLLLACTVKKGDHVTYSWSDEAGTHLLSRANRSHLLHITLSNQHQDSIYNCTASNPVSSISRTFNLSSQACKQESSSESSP

B1: 抗CD150单克隆抗体 (produced by rat hybridoma mCD150-mAb-1, CGMCC No.45539) (antibody, V domains shown)
VH: QIQLVQSGPELKKPGESVKISCKASGYTFTDYAMNWVKQAPGNGLKWMGYINTQTGKPTYADDFKQRFVFSLETSASTAYLQINNLNIEDTATYFCTRYNSGNWFAYWGQGTLVTVSS
VL: DIQMTQTPSSMPASLGERVTISCRAGQGISNYLNWYQQKPDGAIKPLIYYTSNLQSGVPSRFSGSGSGTDYSLTISSLEPEDFAMYYCQQYDSSPYTFGAGTKLELK
notes: also called CD150的单抗; 抗CD150抗体
binding result [1]: binds | EC50 [2]: 1.13 µg/mL
